Assay results as given in patent US20040043438A1.
Substitutions are numbered along the chain they refer to.

B1: Mutant Bet v 1 (2628) (protein)
chain: GVFNVETETTSVIPAARLFKAFILDGDNLFPKVAPQAISSVENISGNGGPGTIKKISFPEGFPFNYVKDRVDEVDHTNFKYNYSVIEGGPIGDTLESISNEIKIVATPDGGSILKISNKYHTKGDHEVKAEQVEASKEMGETLLRAVESYLLAHSDAYN
B2: Bet v 1 (Asn28Thr, Lys32Gln, Glu45Ser, Pro108Gly) mutant (protein)
chain: B1 chain with V5Y, N28T, K32Q, N65K, S97K, P108G, E134K

Assays:
[1] = target: serum IgE from a pool of birch allergic patients; assay: fluid-phase IgE-inhibition assay; competes with biotinylated Bet v 1.2801 for pooled serum IgE
[2] = target: specific IgE bound to the surface of human basophils from birch pollen allergic patients; assay: cell-based or functional assay
[3] = target: serum IgE from a pool of birch allergic patients; assay: fluid-phase IgE-inhibition assay; competes with biotinylated Bet v 1 no. 2801 for pooled serum IgE

Row | Binder | factor by which the affinity is lowered against Bet v 1.2801 [1] | histamine release in human basophil: reduction of potency against Bet v 1.2801 [2] | amount to reach 80% inhibition [3] | factor of decrease against recombinant Bet v 1 (at 80% inhibition) [3] | factor of decrease in affinity against recombinant Bet v 1 (at 50% inhibition) [3]
1 | B1 | 3 to 4 fold | 3 to 10 fold |  |  | 
2 | B2 |  |  | 400 ng | 20 fold | 5 fold
